This passage reports ratio of the GFP+ MHC-I- population of HEK293T cells transfected with Nef (flow cytometry; wild type 34.9%) results from publication PMC6749138.

In test [1] the target is HA-tagged HIV-1 Nef E63A (HIV-1 (NL4-3)) (UniProt P03406).
Test [2] addresses HA-tagged HIV-1 Nef E63A/F68A double mutant (HIV-1 (NL4-3)) (UniProt P03406).
The target in test [3] is HA-tagged HIV-1 Nef F68A (HIV-1 (NL4-3)) (UniProt P03406).

Turning to “adaptor protein 1 (AP-1) complex (from UniProt Q9BXS5 1-423)”, the ratio of the GFP+ MHC-I- population of HEK293T cells transfected with Nef (flow cytometry; wild type 34.9%) in test [1] was determined as 25.7%; in test [2], 19.2%; in test [3], 23.2%.
